This is an account of results in the supplement of paper PMC10724198.

In series [1] the test system is Saccharomyces cerevisiae. The experiment in a line: protein stability index of tFT-peptide fusion in deletion strain of DAS1 (PSI (0-1 scale)); higher = more stable (slower turnover). The procedure: (§1)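 MPS profiling in S. cerevisiae of two library types built from selected 12-aa C-degron peptides (IN1, IN2, LN1, LN3, VN2, R1-R5, W1-W3, Atg1 and Rpa12 C-termini): saturation mutagenesis libraries and C-terminal +1 capping libraries (13 aa). Each peptide is fused to the C-terminus of a sfGFP-mCherry timer, after a GGGS linker. Cells are FACS-sorted into 8 mCherry/sfGFP bins and sequenced. PSI runs from 0 (unstable) to 1 (stable), measured once in wild type and in the das1Δ or doa10Δ background.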

The subject of series [2] is Saccharomyces cerevisiae. The series can be described thus: protein stability index of tFT-peptide fusion in wild type (PSI (0-1 scale)); higher = more stable (slower turnover). Conditions: genetic background: wild type. The procedure: as §1
Series [3] deals with Saccharomyces cerevisiae. The series can be described thus: protein stability index of tFT-peptide fusion (C-terminal peptide) (PSI (0-1 scale)); higher = more stable (slower turnover). Conditions: temperature: 30 C. The procedure:
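MPS profiling in S. cerevisiae of the yeast C-terminome library: the last 12 aa of each annotated ORF are fused to the C-terminus of a sfGFP-mCherry timer, after a GGGS linker. Cells are FACS-sorted into 8 mCherry/sfGFP bins and deep-sequenced. PSI runs from 0 (unstable) to 1 (stable); wild type and das1Δ backgrounds, two technical replicates each.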

Setting [4] is: genetic background: das1 deletion.

± gives the standard deviation of the averaged measurements.
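For protein stability index of tFT-peptide fusion in deletion strain of DAS1 in this document: PSI is a weighted mean of each variant's read distribution over the sorted stability bins, computed only for variants having over 10 reads in total.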
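For protein stability index of tFT-peptide fusion in wild type in this document: PSI derived as read-weighted mean over the 8 sorting bins, only variants exceeding 10 total reads kept, mCherry placed adjacent to the peptide and sfGFP distal.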

For the sequence ADWRVGLWRGAS, the protein stability index in the series on Saccharomyces cerevisiae [1] was 0.729; in the series on Saccharomyces cerevisiae [2] it was 0.519.
For APWRVGLWRGAS, in that order: 0.701 and 0.512.
The like results for ARERVGLWRGAS were, in that order, 0.726 and 0.609.
As to ARLRVGLWRGAS, the results for the protein stability index with Saccharomyces cerevisiae [1] and in the series with Saccharomyces cerevisiae [2] were 0.69 and 0.581, respectively.
For ARNRVGLWRGAS, in that order: 0.693 and 0.606.
For ARWNVGLWRGAS, in that order: 0.662 and 0.322.
The like results for ARWRLGLWRGAS were, in that order, 0.687 and 0.458.
In the case of ARWRMGLWRGAS, the figures for the protein stability index with Saccharomyces cerevisiae [1] and in the series on Saccharomyces cerevisiae [2] were 0.689 and 0.605, respectively.
The like results for ARWRVGLTRGAS were, in that order, 0.679 and 0.664.
For ARWRVGLWAGAS, in that order: 0.627 and 0.599.
For ARWRVGLWGGAS, in that order: 0.674 and 0.554.
As for ARWRVGLWIGAS, the protein stability index with Saccharomyces cerevisiae [1] turned out to be 0.572; with Saccharomyces cerevisiae [2], 0.367.
The like results for ARWRVGLWRGAD were, in that order, 0.672 and 0.694.
Take ARWRVGLWRGAR: the protein stability index in the series on Saccharomyces cerevisiae [1] worked out at 0.666; in the series on Saccharomyces cerevisiae [2] it was 0.663.
For ARWRVGLWRGAY, in that order: 0.682 and 0.598.
For ARWRVGLWRGHS, in that order: 0.691 and 0.602.
For ARWRVGLWRTAS, in that order: 0.684 and 0.0835.
On to ARWRVGLWVGAS, for which the protein stability index in the series with Saccharomyces cerevisiae [1] was found to be 0.545; in the series with Saccharomyces cerevisiae [2], 0.468.
For ARWRVGLYRGAS, in that order: 0.641 and 0.683.
Turning to ARWRVGTWRGAS, the protein stability index in the series with Saccharomyces cerevisiae [1] came out at 0.687; with Saccharomyces cerevisiae [2], 0.535.
The like results for ARWRVKLWRGAS were, in that order, 0.684 and 0.357.
Regarding ARWRVLLWRGAS, the protein stability index in the series on Saccharomyces cerevisiae [1] was 0.628; in the series on Saccharomyces cerevisiae [2], 0.4.
With ASLAASFWRVVG, the results for the protein stability index in the series on Saccharomyces cerevisiae [1] and in the series with Saccharomyces cerevisiae [2] were 0.695 and 0.135, respectively.
Take ASWRVGLWRGAS: the protein stability index in the series on Saccharomyces cerevisiae [1] was 0.703; in the series on Saccharomyces cerevisiae [2] it was 0.516.
For AVVYLSCVACIN, in that order: 0.038 and 0.0207.
For CKSCGYKFRTNN, in that order: 0.697 and 0.276.
Consider VVTYTLKVDLKV [YLR152C C-terminal 12 aa], for which the protein stability index in the series with Saccharomyces cerevisiae [3] (setting [4]) was found to be 0.469 ± 0.025; in the series with Saccharomyces cerevisiae [3] (genetic background: wild type), 0.491 ± 0.012.
As for VVVVVPAVVKTR [SSO1 C-terminal 12 aa], the protein stability index in the series with Saccharomyces cerevisiae [3] (setting [4]) was determined as 0.503 ± 0.011; in the series on Saccharomyces cerevisiae [3] (genetic background: wild type) it was 0.5221 ± 0.0046.
For VVYYQMRCKKMT [BUD26 C-terminal 12 aa], in that order: 0.678 ± 0.032 and 0.4177 ± 0.0039.
For VYVENPIRLFHH [ADE16 C-terminal 12 aa], in that order: 0.712 ± 0.0083 and 0.7235 ± 0.0019.
For WAVICFCSGIHK [YMR027W C-terminal 12 aa], in that order: 0.5858 ± 0.0021 and 0.546 ± 0.013.
WDFKKQGFASRD [PDA1 C-terminal 12 aa]: the protein stability index in the series with Saccharomyces cerevisiae [3] (setting [4]) came out at 0.696 ± 0.01; in the series on Saccharomyces cerevisiae [3] (genetic background: wild type), 0.6926 ± 0.003.
The like results for WERTMRDLKLIH [ALG1 C-terminal 12 aa] were, in that order, 0.742 ± 0.027 and 0.64 ± 0.033.
As for WEVVTGIRKLLI [PEX12 C-terminal 12 aa], the protein stability index is 0.68 ± 0.008 with Saccharomyces cerevisiae [3] (setting [4]) and 0.401 ± 0.014 in the series with Saccharomyces cerevisiae [3] (genetic background: wild type).
“WFSCSLIFRNSW [YJR140W-A C-terminal 12 aa]”: the protein stability index was 0.6314 ± 0.0035 in the series with Saccharomyces cerevisiae [3] (setting [4]) and 0.618 ± 0.053 with Saccharomyces cerevisiae [3] (genetic background: wild type).
For WSNNDDMEQNPW [YPR089W C-terminal 12 aa], in that order: 0.7236 ± 0.0055 and 0.713 ± 0.029.
For the sequence WTTEPYLQRIIW [DIE2 C-terminal 12 aa], the protein stability index is 0.753 ± 0.0089 with Saccharomyces cerevisiae [3] (setting [4]) and 0.718 ± 0.016 in the series with Saccharomyces cerevisiae [3] (genetic background: wild type).
As for WYEDEDSGDDDM [DML1 C-terminal 12 aa], the protein stability index amounted to 0.698 ± 0.012 with Saccharomyces cerevisiae [3] (setting [4]) and 0.674 ± 0.014 in the series on Saccharomyces cerevisiae [3] (genetic background: wild type).
Regarding YAPDVVRSLENL [RRP42 C-terminal 12 aa], the protein stability index amounted to 0.7271 ± 0.0014 with Saccharomyces cerevisiae [3] (setting [4]) and 0.695 ± 0.043 in the series with Saccharomyces cerevisiae [3] (genetic background: wild type).
Consider YAVKDKIETLLI [SNU13 C-terminal 12 aa], for which the protein stability index in the series with Saccharomyces cerevisiae [3] (setting [4]) was 0.7019 ± 0.0055; in the series with Saccharomyces cerevisiae [3] (genetic background: wild type), 0.725 ± 0.12.
For the sequence YAYMLYYERVNK [UBP16 C-terminal 12 aa], the values for the protein stability index with Saccharomyces cerevisiae [3] (setting [4]) and in the series on Saccharomyces cerevisiae [3] (genetic background: wild type) were 0.675 ± 0.02 and 0.675 ± 0.041, respectively.
As to YDANSWKQIKSC [PCL5 C-terminal 12 aa], the results for the protein stability index in the series with Saccharomyces cerevisiae [3] (setting [4]) and in the series on Saccharomyces cerevisiae [3] (genetic background: wild type) were 0.7002 ± 0.0065 and 0.203 ± 0.016, respectively.
As for YDRDAKNDRSTT [YHL017W C-terminal 12 aa], the protein stability index worked out at 0.705 ± 0.023 in the series with Saccharomyces cerevisiae [3] (setting [4]) and 0.665 ± 0.061 in the series with Saccharomyces cerevisiae [3] (genetic background: wild type).
Regarding YEEFALRSGSSS [AFG2 C-terminal 12 aa], the protein stability index with Saccharomyces cerevisiae [3] (setting [4]) is 0.715 ± 0.022; in the series with Saccharomyces cerevisiae [3] (genetic background: wild type), 0.676 ± 0.014.
As for YEGPTLTEFEDA [CYB2 C-terminal 12 aa], the protein stability index amounted to 0.6905 ± 0.0043 in the series with Saccharomyces cerevisiae [3] (setting [4]) and 0.703 ± 0.015 with Saccharomyces cerevisiae [3] (genetic background: wild type).
The like results for “YFFSSDRAIFNA [YGL041C-B C-terminal 12 aa]” were, in that order, 0.731 ± 0.022 and 0.7029 ± 0.0011.
Turning to YFNKTEFLLADN [MRPL17 C-terminal 12 aa], the protein stability index in the series with Saccharomyces cerevisiae [3] (setting [4]) stood at 0.713 ± 0.018; in the series on Saccharomyces cerevisiae [3] (genetic background: wild type), 0.677 ± 0.025.
The like results for YIFQTYVSVDSK [YAR047C C-terminal 12 aa] were, in that order, 0.62 ± 0.036 and 0.58 ± 0.015.
For YILQKQIIEDVE [SFH5 C-terminal 12 aa], in that order: 0.693 ± 0.0056 and 0.65 ± 0.043.
In the case of YINDISRTWNAN [MNT3 C-terminal 12 aa], the figures for the protein stability index in the series on Saccharomyces cerevisiae [3] (setting [4]) and in the series with Saccharomyces cerevisiae [3] (genetic background: wild type) were 0.68 ± 0.0086 and 0.679 ± 0.043, respectively.
For the sequence YIWKYYADSLFE [CSM2 C-terminal 12 aa], the protein stability index in the series with Saccharomyces cerevisiae [3] (setting [4]) is 0.736 ± 0.013; in the series with Saccharomyces cerevisiae [3] (genetic background: wild type) it was 0.685 ± 0.043.
The like results for YKDVQDAIRDSL [URA6 C-terminal 12 aa] were, in that order, 0.708 ± 0.012 and 0.6855 ± 0.0037.
The like results for YKELVKNIESKL [CIT2 C-terminal 12 aa] were, in that order, 0.752 ± 0.024 and 0.837 ± 0.015.
For YKERDLIDRSAY [VTS1 C-terminal 12 aa], in that order: 0.681 ± 0.014 and 0.706 ± 0.032.
Turning to YKKAATLISNIL [DNM1 C-terminal 12 aa], the protein stability index stood at 0.71 ± 0.017 with Saccharomyces cerevisiae [3] (setting [4]) and 0.72 ± 0.074 in the series on Saccharomyces cerevisiae [3] (genetic background: wild type).
Consider YKQREYYTGVAW [ERG28 C-terminal 12 aa], for which the protein stability index worked out at 0.70264 ± 0.0005 in the series with Saccharomyces cerevisiae [3] (setting [4]) and 0.694 ± 0.02 in the series on Saccharomyces cerevisiae [3] (genetic background: wild type).
As to YLAFRLREFNKL [RSC1 C-terminal 12 aa], the protein stability index in the series with Saccharomyces cerevisiae [3] (setting [4]) turned out to be 0.787 ± 0.05; with Saccharomyces cerevisiae [3] (genetic background: wild type), 0.726 ± 0.049.
For YLKEYEFSQKDF [PFS1 C-terminal 12 aa], the figures for the protein stability index in the series with Saccharomyces cerevisiae [3] (setting [4]) and in the series on Saccharomyces cerevisiae [3] (genetic background: wild type) were 0.725 ± 0.01 and 0.734 ± 0.025, respectively.
For YLRFKENPEEKW [AIM29 C-terminal 12 aa], in that order: 0.711 ± 0.011 and 0.753 ± 0.086.
For YNSGTEGTRFQI [TAR1 C-terminal 12 aa], in that order: 0.707 ± 0.018 and 0.6849 ± 0.0015.
The like results for YQVSIAKVPRLT [BUD5 C-terminal 12 aa] were, in that order, 0.711 ± 0.0095 and 0.4878 ± 0.0037.
Turning to YRCEKISQVLVI [CTF13 C-terminal 12 aa], the results for the protein stability index in the series on Saccharomyces cerevisiae [3] (setting [4]) and in the series with Saccharomyces cerevisiae [3] (genetic background: wild type) were 0.461 ± 0.036 and 0.495 ± 0.047, respectively.
For “YRNIPESKPQGS [YIR021W-A C-terminal 12 aa]”, in that order: 0.6812 ± 0.0038 and 0.6624 ± 0.0038.
The like results for YRVARKPSQPVM [MTO1 C-terminal 12 aa] were, in that order, 0.685 ± 0.012 and 0.683 ± 0.027.
For YVASHESQKADE [RRP5 C-terminal 12 aa], in that order: 0.6883 ± 0.0054 and 0.741 ± 0.072.
For the sequence YVKNLLTRFFTR [FRT1 C-terminal 12 aa], the results for the protein stability index in the series with Saccharomyces cerevisiae [3] (setting [4]) and with Saccharomyces cerevisiae [3] (genetic background: wild type) were 0.7184 ± 0.0033 and 0.732 ± 0.03, respectively.
For YVVTSDEHPKTL [SIR2 C-terminal 12 aa], in that order: 0.724 ± 0.0073 and 0.6955 ± 0.0043.
The like results for YWILKSNPTNES [YNL092W C-terminal 12 aa] were, in that order, 0.742 ± 0.018 and 0.7246 ± 0.0071.
On to YWRKQYPEVDLP [UIP3 C-terminal 12 aa], for which the protein stability index in the series with Saccharomyces cerevisiae [3] (setting [4]) came to 0.728 ± 0.018; with Saccharomyces cerevisiae [3] (genetic background: wild type), 0.744 ± 0.017.
The like results for YYYYNKYKEFYP [TMH11 C-terminal 12 aa] were, in that order, 0.736 ± 0.039 and 0.704 ± 0.029.
